These results are taken from US20200079833A1 (AstraZeneca / MedImmune, published 2020).

B1: SEQ ID NO 96 (peptide)
peptide: H[Aib]EK([γGlu-Palmitoyl])S[αMeF]TSDV[αMeS]S[αMeF]LEGEAA[αMeK]E[αMeF]IA[αMeF]VV[αMeK]GG-NH2
modifications: N-terminus assumed
SMILES: CCCCCCCCCCCCCCCC(=O)N[C@@H](CCC(=O)NCCCC[C@H](NC(=O)[C@H](CCC(=O)O)NC(=O)C(C)(C)NC(=O)[C@@H](N)Cc1c[nH]cn1)C(=O)N[C@@H](CO)C(=O)N[C@@](C)(Cc1ccccc1)C(=O)N[C@H](C(=O)N[C@@H](CO)C(=O)N[C@@H](CC(=O)O)C(=O)N[C@H](C(=O)N[C@@](C)(CO)C(=O)N[C@@H](CO)C(=O)N[C@@](C)(Cc1ccccc1)C(=O)N[C@@H](CC(C)C)C(=O)N[C@@H](CCC(=O)O)C(=O)NCC(=O)N[C@@H](CCC(=O)O)C(=O)N[C@@H](C)C(=O)N[C@@H](C)C(=O)N[C@@](C)(CCCCN)C(=O)N[C@@H](CCC(=O)O)C(=O)N[C@@](C)(Cc1ccccc1)C(=O)N[C@H](C(=O)N[C@@H](C)C(=O)N[C@@](C)(Cc1ccccc1)C(=O)N[C@H](C(=O)N[C@H](C(=O)N[C@@](C)(CCCCN)C(=O)NCC(=O)NCC(N)=O)C(C)C)C(C)C)[C@@H](C)CC)C(C)C)[C@@H](C)O)C(=O)O
B2: SEQ ID NO 102 (peptide)
peptide: H[Aib]EGS[αMeF]TSDV[αMeS]S[αMeF]LEGEAA[αMeK]E[αMeF]IA[αMeF]VK([PEG2′-PEG2′-γGlu-Stearoyl])[αMeK]GG-NH2
B3: SEQ ID NO 108 (peptide)
peptide: H[Aib]EGS[αMeF]TSDV[αMeS]S[αMeF]LEGEAA[αMeK]K([PEG2′-PEG2′-γGlu-Stearoyl])[αMeF]IA[αMeF]VV[αMeK]GG-NH2
B4: SEQ ID NO 99 (peptide)
peptide: H[Aib]EGS[αMeF]TSDV[αMeS]S[αMeF]LEGEAA[αMeK]E[αMeF]IA[αMeF]VV[αMeK]GK([PEG2′-PEG2′-γGlu-Stearoyl])-NH2
B5: SEQ ID NO 101 (peptide)
peptide: H[Aib]EGS[αMeF]TSDV[αMeS]S[αMeF]LEGEAA[αMeK]E[αMeF]IA[αMeF]VVK([PEG2′-PEG2′-γGlu-Stearoyl])GG-NH2
B6: SEQ ID NO 100 (peptide)
peptide: H[Aib]EGS[αMeF]TSDV[αMeS]S[αMeF]LEGEAA[αMeK]E[αMeF]IA[αMeF]VV[αMeK]K([PEG2′-PEG2′-γGlu-Stearoyl])G-NH2

Starred links: 1 amine or outer side, 2 acyl side, 3 side chain; linkers in the order of their positions; H or OH if unused. Non-standard residues stand in square brackets, D forms with d. Groups on a side chain read outwards from the residue. Primed or numbered codes have the meaning given here. No end group written: not given here. *: point of attachment. γGlu = O=C(O)[C@H](CCC(=O)[*:2])N[*:1]; Stearoyl = CCCCCCCCCCCCCCCCCC(=O)*; Palmitoyl = CCCCCCCCCCCCCCCC(=O)*; αMeF = C[C@](N)(Cc1ccccc1)C(=O)O; αMeK = C[C@](N)(CCCCN)C(=O)O; αMeS = C[C@](N)(CO)C(=O)O; PEG2′ = not defined here; Aib = CC(C)(N)C(=O)O

In one experiment the target is glucagon receptor (GCGR) (human, UniProt P47871 26-477). Description: cell-based or functional assay.
glucagon receptor (GCGR), sequence (P47871 26-477): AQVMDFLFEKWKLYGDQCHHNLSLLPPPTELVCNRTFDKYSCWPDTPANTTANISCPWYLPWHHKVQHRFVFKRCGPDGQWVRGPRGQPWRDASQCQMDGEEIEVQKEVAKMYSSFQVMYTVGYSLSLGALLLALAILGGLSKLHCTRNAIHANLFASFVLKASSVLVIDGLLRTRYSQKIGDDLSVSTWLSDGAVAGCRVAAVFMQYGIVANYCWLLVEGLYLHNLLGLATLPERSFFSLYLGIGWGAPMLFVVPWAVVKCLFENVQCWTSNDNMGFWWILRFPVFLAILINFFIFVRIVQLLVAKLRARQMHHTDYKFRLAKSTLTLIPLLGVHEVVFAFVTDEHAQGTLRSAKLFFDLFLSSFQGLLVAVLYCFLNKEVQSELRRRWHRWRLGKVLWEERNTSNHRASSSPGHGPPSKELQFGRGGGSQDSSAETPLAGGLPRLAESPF
Turning to B1, the “cAMP Primary assay EC50 Gluc-R” value is 27 nM and the “cAMP Primary assay EC50 Gluc-R (2nd)” value was 27 nM.

On to B2, for which the “cAMP Primary assay EC50 Gluc-R” value is 25 nM and the “cAMP Primary assay EC50 Gluc-R (2nd)” value stood at 25.2 nM.

As for B3, the “cAMP Primary assay EC50 Gluc-R” value was 25 nM and the “cAMP Primary assay EC50 Gluc-R (2nd)” value amounted to 25.4 nM.

Take B4: the “cAMP Primary assay EC50 Gluc-R” value turned out to be 25 nM and the “cAMP Primary assay EC50 Gluc-R (2nd)” value is 24.9 nM.

Turning to B5, the “cAMP Primary assay EC50 Gluc-R” value was found to be 25 nM and the “cAMP Primary assay EC50 Gluc-R (2nd)” value was 25.4 nM.

As to B6, the “cAMP Primary assay EC50 Gluc-R” value was 25 nM and the “cAMP Primary assay EC50 Gluc-R (2nd)” value came out at 24.9 nM.

In another experiment the target is T1, glucose-dependent insulinotropic peptide (gastric inhibitory polypeptide) receptor (GIPR) (human, UniProt P48546 22-466).
T1 sequence (looked up): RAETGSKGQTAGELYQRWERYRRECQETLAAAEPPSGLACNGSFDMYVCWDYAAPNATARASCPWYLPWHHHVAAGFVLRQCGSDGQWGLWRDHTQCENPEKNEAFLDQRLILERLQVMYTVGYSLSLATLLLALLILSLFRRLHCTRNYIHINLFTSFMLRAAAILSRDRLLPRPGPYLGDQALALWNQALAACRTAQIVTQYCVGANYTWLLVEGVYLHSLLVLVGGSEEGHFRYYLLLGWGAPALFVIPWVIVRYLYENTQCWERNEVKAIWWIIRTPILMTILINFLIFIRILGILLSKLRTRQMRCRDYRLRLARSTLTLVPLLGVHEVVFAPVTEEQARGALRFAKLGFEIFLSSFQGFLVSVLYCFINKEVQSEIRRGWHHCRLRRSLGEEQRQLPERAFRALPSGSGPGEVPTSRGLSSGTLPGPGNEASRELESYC
Kind of experiment: cell-based or functional assay.
Consider B1, for which the “cAMP Primary assay EC50 GIP-R” value worked out at 27 nM and the “cAMP Primary assay EC50 GIP-R (2nd)” value came out at 27 nM.

Regarding B2, the “cAMP Primary assay EC50 GIP-R” value worked out at 25 nM and the “cAMP Primary assay EC50 GIP-R (2nd)” value was 25.2 nM.

As for B3, the “cAMP Primary assay EC50 GIP-R” value came to 25 nM and the “cAMP Primary assay EC50 GIP-R (2nd)” value is 25.4 nM.

In the case of B4, the “cAMP Primary assay EC50 GIP-R” value was found to be 25 nM and the “cAMP Primary assay EC50 GIP-R (2nd)” value was determined as 24.9 nM.

Turning to B5, the “cAMP Primary assay EC50 GIP-R” value turned out to be 25 nM and the “cAMP Primary assay EC50 GIP-R (2nd)” value was 25.4 nM.

With B6, the “cAMP Primary assay EC50 GIP-R” value was 25 nM and the “cAMP Primary assay EC50 GIP-R (2nd)” value worked out at 24.9 nM.

A further experiment deals with GLP-1 receptor (GLP-1R) (human, UniProt P43220 24-463). Kind of experiment: cell-based or functional assay.
For B1, the “cAMP Mean pM GLP-1R” value turned out to be 746 pM, the “cAMP Primary assay EC50 GLP-1R n1” value came to 0.92 nM and the “cAMP Primary assay EC50 GLP-1R n2” value turned out to be 0.57 nM.

B2: the “cAMP Mean pM GLP-1R” value turned out to be 22 pM, the “cAMP Primary assay EC50 GLP-1R n1” value was 0.024 nM and the “cAMP Primary assay EC50 GLP-1R n2” value worked out at 0.0206 nM.

For the molecule B3, the “cAMP Mean pM GLP-1R” value amounted to 4 pM, the “cAMP Primary assay EC50 GLP-1R n1” value is 0.0038 nM and the “cAMP Primary assay EC50 GLP-1R n2” value came out at 0.00346 nM.

Consider B4, for which the “cAMP Mean pM GLP-1R” value was determined as 54 pM, the “cAMP Primary assay EC50 GLP-1R n1” value was found to be 0.058 nM and the “cAMP Primary assay EC50 GLP-1R n2” value worked out at 0.0493 nM.

For B5, the “cAMP Mean pM GLP-1R” value was determined as 55 pM, the “cAMP Primary assay EC50 GLP-1R n1” value was found to be 0.058 nM and the “cAMP Primary assay EC50 GLP-1R n2” value amounted to 0.0512 nM.

In the case of B6, the “cAMP Mean pM GLP-1R” value was 15 pM, the “cAMP Primary assay EC50 GLP-1R n1” value came to 0.016 nM and the “cAMP Primary assay EC50 GLP-1R n2” value came to 0.0146 nM.
